Source: patent US20150329606A1 (COMMISSARIAT A L ENERGIE ATOMIQUE ET AUX ENERGIES …, published 2015)

Target: T1, C1q derived from serum (human, UniProt P02745 23-245; P02746 28-253; P02747 29-245)
T1 construct: mature; Native C1q from serum, the comparator in SPR; The SPR paragraph says only 'serum C1q'; also called serC1q; serum C1q
Test: SPR, C1q immobilized on CM5 chip, tetramer injected at 1-24 nM

T1 sequence (P02745 23-245, chain 1 of 3): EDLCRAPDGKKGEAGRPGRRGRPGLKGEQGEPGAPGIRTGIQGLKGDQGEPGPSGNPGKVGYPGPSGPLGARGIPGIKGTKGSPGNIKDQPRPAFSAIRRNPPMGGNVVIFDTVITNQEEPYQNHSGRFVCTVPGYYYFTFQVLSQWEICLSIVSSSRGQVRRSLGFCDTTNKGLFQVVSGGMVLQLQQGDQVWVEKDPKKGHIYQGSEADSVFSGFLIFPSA
T1 sequence (P02746 28-253, chain 2 of 3): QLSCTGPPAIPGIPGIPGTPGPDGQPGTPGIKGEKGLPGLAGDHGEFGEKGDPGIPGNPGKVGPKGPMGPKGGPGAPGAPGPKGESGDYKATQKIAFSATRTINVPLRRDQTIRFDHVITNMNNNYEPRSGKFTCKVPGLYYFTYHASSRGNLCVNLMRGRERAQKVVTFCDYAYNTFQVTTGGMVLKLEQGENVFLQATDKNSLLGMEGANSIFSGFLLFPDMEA
T1 sequence (P02747 29-245, chain 3 of 3): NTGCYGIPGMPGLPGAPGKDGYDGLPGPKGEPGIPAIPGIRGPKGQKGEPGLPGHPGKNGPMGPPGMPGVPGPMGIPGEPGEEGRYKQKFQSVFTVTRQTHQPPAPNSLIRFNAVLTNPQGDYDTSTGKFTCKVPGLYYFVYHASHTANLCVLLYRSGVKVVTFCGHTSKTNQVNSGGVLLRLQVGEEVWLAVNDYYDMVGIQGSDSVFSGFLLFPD

- Kd: 3.12 nM
- koff: 0.00212 s⁻¹
- kon: 681000 M⁻¹ s⁻¹
B1: C1s-C1r-C1r-C1s tetramer (enzyme)
chain 1: SIPIPQKLFGEVTSPLFPKPYPNNFETTTVITVPTGYRVKLVFQQFDLEPSEGCFYDYVKISADKKSLGRFCGQLGSPLGNPPGKKEFMSQGNKMLLTFHTDFSNEENGTIMFYKGFLAYYQAVDLDECASRSKSGEEDPQPQCQHLCHNYVGGYFCSCRPGYELQEDTHSCQAECSSELYTEASGYISSLEYPRSYPPDLRCNYSIRVERGLTLHLKFLEPFDIDDHQQVHCPYDQLQIYANGKNIGEFCGKQRPPDLDTSSNAVDLLFFTDESGDSRGWKLRYTTEIIKCPQPKTLDEFTIIQNLQPQYQFRDYFIATCKQGYQLIEGNQVLHSFTAVCQDDGTWHRAMPRCKIKDCGQPRNLPNGDFRYTTTMGVNTYKARIQYYCHEPYYKMQTRAGSRESEQGVYTCTAQGIWKNEQKGEKIPRCLPVCGKPVNPVEQRQRIIGGQKAKMGNFPWQVFTNIHGRGGGALLGDRWILTAAHTLYPKEHEAQSNASLDVFLGHTNVEELMKLGNHPIRRVSVHPDYRQDESYNFEGDIALLELENSVTLGPNLLPICLPDNDTFYDLGLMGYVSGFGVMEEKIAHDLRFVRLPVANPQACENWLRGKNRMDVFSQNMFCAGHPSLKQDACQGDSGGVFAVRDPNTDRWVATGIVSWGIGCSRGYGFYTKVLNYVDWIKKEMEEED
chain 2: EPTMYGEILSPNYPQAYPSEVEKSWDIEVPEGYGIHLYFTHLDIELSENCAYDSVQIISGDTEEGRLCGQRSSNNPHSPIVEEFQVPYNKLQVIFKSDFSNEERFTGFAAYYVATDINECTDFVDVPCSHFCNNFIGGYFCSCPPEYFLHDDMKNCGVNCSGDVFTALIGEIASPNYPKPYPENSRCEYQIRLEKGFQVVVTLRREDFDVEAADSAGNCLDSLVFVAGDRQFGPYCGHGFPGPLNIETKSNALDIIFQTDLTGQKKGWKLRYHGDPMPCPKEDTPNSVWEPAKAKYVFRDVVQITCLDGFEVVEGRVGATSFYSTCQSNGKWSNSKLKCQPVDCGIPESIENGKVEDPESTLFGSVIRYTCEEPYYYMENGGGGEYHCAGNGSWVNEVLGPELPKCVPVCGVPREPFEEKQRIIGGSDADIKNFPWQVFFDNPWAGGALINEYWVLTAAHVVEGNREPTMYVGSTSVQTSRLAKSKMLTPEHVFIHPGWKLLEVPEGRTNFDNDIALVRLKDPVKMGPTVSPICLPGTSSDYNLMDGDLGLISGWGRTEKRDRAVRLKAARLPVAPLRKCKEVKVEKPTADAEAYVFTPNMICAGGEKGMDSCKGDSGGAFAVQDPNDKTKFYAAGLVSWGPQCGTYGLYTRVKNYVDWIMKTMQENSTPRED
notes: also called C1s-C1r-C1r-C1s proenzyme tetramer;2-C1s2
